Assay results reported in IntAct's records for PubMed 39009827.

B1: Microphthalmia-associated transcription factor (Homo sapiens), O75030 (parent)
chain: MQSESGIVPDFEVGEEFHEEPKTYYELKSQPLKSSSSAEHPGASKPPISSSSMTSRILLRQQLMREQMQEQERREQQQKLQAAQFMQQRVPVSQTPAINVSVPTTLPSATQVPMEVLKVQTHLENPTKYHIQQAQRQQVKQYLSTTLANKHANQVLSLPCPNQPGDHVMPPVPGSSAPNSPMAMLTLNSNCEKEGFYKFEEQNRAESECPGMNTHSRASCMQMDDVIDDIISLESSYNEEILGLMDPALQMANTLPVSGNLIDLYGNQGLPPPGLTISNSCPANLPNIKRELTACIFPTESEARALAKERQKKDNHNLIERRRRFNINDRIKELGTLIPKSNDPDMRWNKGTILKASVDYIRKLQREQQRAKELENRQKKLEHANRHLLLRIQELEMQARAHGLSLIPSTGLCSPDLVNRIIKQEPVLENCSQDLLQHHADLTCTTTLDLTDGTITFNNNLGTGTEANQAYSVPTKMGSKLEDILMDDTLSPVGVTDPLLSSVSPGASKTSSRRSSMSMEETEHTC
B2: Fanconi anemia group A protein (Homo sapiens), O15360 (parent)
chain: MSDSWVPNSASGQDPGGRRRAWAELLAGRVKREKYNPERAQKLKESAVRLLRSHQDLNALLLEVEGPLCKKLSLSKVIDCDSSEAYANHSSSFIGSALQDQASRLGVPVGILSAGMVASSVGQICTAPAETSHPVLLTVEQRKKLSSLLEFAQYLLAHSMFSRLSFCQELWKIQSSLLLEAVWHLHVQGIVSLQELLESHPDMHAVGSWLFRNLCCLCEQMEASCQHADVARAMLSDFVQMFVLRGFQKNSDLRRTVEPEKMPQVTVDVLQRMLIFALDALAAGVQEESSTHKIVRCWFGVFSGHTLGSVISTDPLKRFFSHTLTQILTHSPVLKASDAVQMQREWSFARTHPLLTSLYRRLFVMLSAEELVGHLQEVLETQEVHWQRVLSFVSALVVCFPEAQQLLEDWVARLMAQAFESCQLDSMVTAFLVVRQAALEGPSAFLSYADWFKASFGSTRGYHGCSKKALVFLFTFLSELVPFESPRYLQVHILHPPLVPGKYRSLLTDYISLAKTRLADLKVSIENMGLYEDLSSAGDITEPHSQALQDVEKAIMVFEHTGNIPVTVMEASIFRRPYYVSHFLPALLTPRVLPKVPDSRVAFIESLKRADKIPPSLYSTYCQACSAAEEKPEDAALGVRAEPNSAEEPLGQLTAALGELRASMTDPSQRDVISAQVAVISERLRAVLGHNEDDSSVEISKIQLSINTPRLEPREHMAVDLLLTSFCQNLMAASSVAPPERQGPWAALFVRTMCGRVLPAVLTRLCQLLRHQGPSLSAPHVLGLAALAVHLGESRSALPEVDVGPPAPGAGLPVPALFDSLLTCRTRDSLFFCLKFCTAAISYSLCKFSSQSRDTLCSCLSPGLIKKFQFLMFRLFSEARQPLSEEDVASLSWRPLHLPSADWQRAALSLWTHRTFREVLKEEDVHLTYQDWLHLELEIQPEADALSDTERQDFHQWAIHEHFLPESSASGGCDGDLQAACTILVNALMDFHQSSRSYDHSENSDLVFGGRTGNEDIISRLQEMVADLELQQDLIVPLGHTPSQEHFLFEIFRRRLQALTSGWSVAASLQRQRELLMYKRILLRLPSSVLCGSSFQAEQPITARCEQFFHLVNSEMRNFCSHGGALTQDITAHFFRGLLNACLRSRDPSLMVDFILAKCQTKCPLILTSALVWWPSLEPVLLCRWRRHCQSPLPRELQKLQEGRQFASDFLSPEAASPAPNPDWLSAAALHFAIQQVREENIRKQLKKLDCEREELLVFLFFFSLMGLLSSHLTSNSTTDLPKAFHVCAAILECLEKRKISWLALFQLTESDLRLGRLLLRVAPDQHTRLLPFAFYSLLSYFHEDAAIREEAFLHVAVDMYLKLVQLFVAGDTSTVSPPAGRSLELKGQGNPVELITKARLFLLQLIPRCPKKSFSHVAELLADRGDCDPEVSAALQSRQQAAPDADLSQEPHLF
B3: Keratin, type II cytoskeletal 1 (Homo sapiens), P04264 (parent)
chain: MSRQFSSRSGYRSGGGFSSGSAGIINYQRRTTSSSTRRSGGGGGRFSSCGGGGGSFGAGGGFGSRSLVNLGGSKSISISVARGGGRGSGFGGGYGGGGFGGGGFGGGGFGGGGIGGGGFGGFGSGGGGFGGGGFGGGGYGGGYGPVCPPGGIQEVTINQSLLQPLNVEIDPEIQKVKSREREQIKSLNNQFASFIDKVRFLEQQNQVLQTKWELLQQVDTSTRTHNLEPYFESFINNLRRRVDQLKSDQSRLDSELKNMQDMVEDYRNKYEDEINKRTNAENEFVTIKKDVDGAYMTKVDLQAKLDNLQQEIDFLTALYQAELSQMQTQISETNVILSMDNNRSLDLDSIIAEVKAQYEDIAQKSKAEAESLYQSKYEELQITAGRHGDSVRNSKIEISELNRVIQRLRSEIDNVKKQISNLQQSISDAEQRGENALKDAKNKLNDLEDALQQAKEDLARLLRDYQELMNTKLALDLEIATYRTLLEGEESRMSGECAPNVSVSVSTSHTTISGGGSRGGGGGGYGSGGSSYGSGGGSYGSGGGGGGGRGSYGSGGSSYGSGGGSYGSGGGGGGHGSYGSGSSSGGYRGGSGGGGGGSSGGRGSGGGSSGGSIGGRGSSSGGVKSSGGSSSVKFVSTTYSGVTR
B4: Mitotic checkpoint serine/threonine-protein kinase BUB1 (Homo sapiens), O43683 (parent)
chain: MDTPENVLQMLEAHMQSYKGNDPLGEWERYIQWVEENFPENKEYLITLLEHLMKEFLDKKKYHNDPRFISYCLKFAEYNSDLHQFFEFLYNHGIGTLSSPLYIAWAGHLEAQGELQHASAVLQRGIQNQAEPREFLQQQYRLFQTRLTETHLPAQARTSEPLHNVQVLNQMITSKSNPGNNMACISKNQGSELSGVISSACDKESNMERRVITISKSEYSVHSSLASKVDVEQVVMYCKEKLIRGESEFSFEELRAQKYNQRRKHEQWVNEDRHYMKRKEANAFEEQLLKQKMDELHKKLHQVVETSHEDLPASQERSEVNPARMGPSVGSQQELRAPCLPVTYQQTPVNMEKNPREAPPVVPPLANAISAALVSPATSQSIAPPVPLKAQTVTDSMFAVASKDAGCVNKSTHEFKPQSGAEIKEGCETHKVANTSSFHTTPNTSLGMVQATPSKVQPSPTVHTKEALGFIMNMFQAPTLPDISDDKDEWQSLDQNEDAFEAQFQKNVRSSGAWGVNKIISSLSSAFHVFEDGNKENYGLPQPKNKPTGARTFGERSVSRLPSKPKEEVPHAEEFLDDSTVWGIRCNKTLAPSPKSPGDFTSAAQLASTPFHKLPVESVHILEDKENVVAKQCTQATLDSCEENMVVPSRDGKFSPIQEKSPKQALSSHMYSASLLRLSQPAAGGVLTCEAELGVEACRLTDTDAAIAEDPPDAIAGLQAEWMQMSSLGTVDAPNFIVGNPWDDKLIFKLLSGLSKPVSSYPNTFEWQCKLPAIKPKTEFQLGSKLVYVHHLLGEGAFAQVYEATQGDLNDAKNKQKFVLKVQKPANPWEFYIGTQLMERLKPSMQHMFMKFYSAHLFQNGSVLVGELYSYGTLLNAINLYKNTPEKVMPQGLVISFAMRMLYMIEQVHDCEIIHGDIKPDNFILGNGFLEQDDEDDLSAGLALIDLGQSIDMKLFPKGTIFTAKCETSGFQCVEMLSNKPWNYQIDYFGVAATVYCMLFGTYMKVKNEGGECKPEGLFRRLPHLDMWNEFFHVMLNIPDCHHLPSLDLLRQKLKKVFQQHYTNKIRALRNRLIVLLLECKRSRK
B5: ATP-binding cassette sub-family C member 6 (Homo sapiens), O95255 (parent)
chain: MAAPAEPCAGQGVWNQTEPEPAATSLLSLCFLRTAGVWVPPMYLWVLGPIYLLFIHHHGRGYLRMSPLFKAKMVLGFALIVLCTSSVAVALWKIQQGTPEAPEFLIHPTVWLTTMSFAVFLIHTERKKGVQSSGVLFGYWLLCFVLPATNAAQQASGAGFQSDPVRHLSTYLCLSLVVAQFVLSCLADQPPFFPEDPQQSNPCPETGAAFPSKATFWWVSGLVWRGYRRPLRPKDLWSLGRENSSEELVSRLEKEWMRNRSAARRHNKAIAFKRKGGSGMKAPETEPFLRQEGSQWRPLLKAIWQVFHSTFLLGTLSLIISDVFRFTVPKLLSLFLEFIGDPKPPAWKGYLLAVLMFLSACLQTLFEQQNMYRLKVLQMRLRSAITGLVYRKVLALSSGSRKASAVGDVVNLVSVDVQRLTESVLYLNGLWLPLVWIVVCFVYLWQLLGPSALTAIAVFLSLLPLNFFISKKRNHHQEEQMRQKDSRARLTSSILRNSKTIKFHGWEGAFLDRVLGIRGQELGALRTSGLLFSVSLVSFQVSTFLVALVVFAVHTLVAENAMNAEKAFVTLTVLNILNKAQAFLPFSIHSLVQARVSFDRLVTFLCLEEVDPGVVDSSSSGSAAGKDCITIHSATFAWSQESPPCLHRINLTVPQGCLLAVVGPVGAGKSSLLSALLGELSKVEGFVSIEGAVAYVPQEAWVQNTSVVENVCFGQELDPPWLERVLEACALQPDVDSFPEGIHTSIGEQGMNLSGGQKQRLSLARAVYRKAAVYLLDDPLAALDAHVGQHVFNQVIGPGGLLQGTTRILVTHALHILPQADWIIVLANGAIAEMGSYQELLQRKGALMCLLDQARQPGDRGEGETEPGTSTKDPRGTSAGRRPELRRERSIKSVPEKDRTTSEAQTEVPLDDPDRAGWPAGKDSIQYGRVKATVHLAYLRAVGTPLCLYALFLFLCQQVASFCRGYWLSLWADDPAVGGQQTQAALRGGIFGLLGCLQAIGLFASMAAVLLGGARASRLLFQRLLWDVVRSPISFFERTPIGHLLNRFSKETDTVDVDIPDKLRSLLMYAFGLLEVSLVVAVATPLATVAILPLFLLYAGFQSLYVVSSCQLRRLESASYSSVCSHMAETFQGSTVVRAFRTQAPFVAQNNARVDESQRISFPRLVADRWLAANVELLGNGLVFAAATCAVLSKAHLSAGLVGFSVSAALQVTQTLQWVVRNWTDLENSIVSVERMQDYAWTPKEAPWRLPTCAAQPPWPQGGQIEFRDFGLRYRPELPLAVQGVSFKIHAGEKVGIVGRTGAGKSSLASGLLRLQEAAEGGIWIDGVPIAHVGLHTLRSRISIIPQDPILFPGSLRMNLDLLQEHSDEAIWAALETVQLKALVASLPGQLQYKCADRGEDLSVGQKQLLCLARALLRKTQILILDEATAAVDPGTELQMQAMLGSWFAQCTVLLIAHRLRSVMDCARVLVMDKGQVAESGSPAQLLAQKGLFYRLAQESGLV

Variants of: B1
Conditions: with clh1_human CLTC

Variant | effect of a mutation on the interaction
MQSESGIVPDFEVGEEFHEEPKTYYELKSQPLKSSSSAEHPGASKPPISSSSMTSRILLRQQLMREQMQEQERREQQQKLQAAQFMQQRVPVSQTPAINVSVPTTLPSATQVPMEVLKVQTHLENPTKYHIQQAQRQQVKQYLSTTLANKHANQVLSLPCPNQPGDHVMPPVPGSSAPNSPMAMLTLNSNCEKEGFYKFEEQNRAESECPGMNTHSRASCMQMDDVIDDIISLESSYNEEILGLMDPALQMANTLPVSGNLIDLCGNQGLPPPGLTISNSCPANLPNIKRELTACIFPTESEARALAKERQKKDNHNLIERRRRFNINDRIKELGTLIPKSNDPDMRWNKGTILKASVDYIRKLQREQQRAKELENRQKKLEHANRHLLLRIQELEMQARAHGLSLIPSTGLCSPDLVNRIIKQEPVLENCSQDLLQHHADLTCTTTLDLTDGTITFNNNLGTGTEANQAYSVPTKMGSKLEDILMDDTLSPVGVTDPLLSSVSPGASKTSSRRSSMSMEETEHTC [Y265C] | with no effect

Variants of: B2
Conditions: with cskp_human CASK

Variant | effect of a mutation on the interaction
S4L | causing an interaction

Variants of: B3
Conditions: with mlp3a_human MAP1LC3A

Variant | effect of a mutation on the interaction
L214P | disrupting interaction strength

Variants of: B4
Conditions: with mlp3b_human MAP1LC3B

Variant | effect of a mutation on the interaction
S492F | increasing interaction strength

Variants of: B4
Conditions: with gbrl1_human GABARAPL1, Q9H0R8
Chain of gbrl1_human GABARAPL1, Q9H0R8 (Q9H0R8 whole entry, looked up): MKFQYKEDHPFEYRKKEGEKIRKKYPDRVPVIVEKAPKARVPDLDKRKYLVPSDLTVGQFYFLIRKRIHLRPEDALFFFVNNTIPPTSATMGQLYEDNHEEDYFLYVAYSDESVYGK

Variant | effect of a mutation on the interaction
S492F | increasing interaction strength

Variants of: B5
Conditions: with mlp3b_human MAP1LC3B

Variant | effect of a mutation on the interaction
L1226I | decreasing interaction strength

Variants of: B5
Conditions: with mlp3a_human MAP1LC3A

Variant | effect of a mutation on the interaction
L1226I | decreasing interaction strength
